For assay [1], the target named is T1, Human VSIG4-L-Fc (human).
T1 construct: also called hVSIG4-L-Fc; hVSIG4-L
Put plainly: ligand competition ELISA (FJB), blocked ligand iC3b. Background: ELISA stands for enzyme-linked immunosorbent assay.

For assay [2], the target named is T1, Human VSIG4-L-Fc. Put plainly: BLI binning on hVSIG4-L-Fc, competitor 12A12 first.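 Also: normalized to binding of second antibody without first competitor antibody.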
Procedure: (§1) Epitopic diversity of functional antibodies was further assessed by antibody cross-blocking experiments, performed on a ForteBio Octet® Red384 system. […] All assay steps occurred at 30° C. with an acquisition rate of 5.0 Hz.
(§2) Binning results were calculated using ForteBio Data Analysis HT software. Antibody “a” and antibody “b” steps were defined, and the maximum binding calculation was averaged at the last 10% of the step duration. Once the matrix was generated, the antibody “b” binding signal in the absence of any antibody “a” was used to normalize the maximum binding of the competitor antibodies. Hierarchical clustering was set with a similarity metric of Pearson and Lingang Criteria by Mean, and the normalized maximum binding nm shift is reported in Table 9 below.
Assay [3] has as its target T1, Human VSIG4-L-Fc. Briefly: ligand blocking of C3b, IgG.
Assay [4] addresses T1, Human VSIG4-L-Fc. Put plainly: BLI binning on hVSIG4-L-Fc, competitor 15A06 first.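 Also: normalized to binding of second antibody without first competitor antibody.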
Procedure: as §1, §2
Assay [5] concerns the target T1, Human VSIG4-L-Fc. Put plainly: BLI binning on hVSIG4-L-Fc, competitor 15C03 first.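 Also: normalized to binding of second antibody without first competitor antibody.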
Procedure: as §1, §2
Assay [6] addresses T1, Human VSIG4-L-Fc. Briefly: BLI binning on hVSIG4-L-Fc, competitor 12A08 first.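 Also: normalized to binding of second antibody without first competitor antibody.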
A further assay addresses T2, Human VSIG4-S-His (human, UniProt Q9Y279 20-283).
T2 construct: short isoform ECD with His tag; also called hVSIG4-S; VISG4-S-His
T2 sequence: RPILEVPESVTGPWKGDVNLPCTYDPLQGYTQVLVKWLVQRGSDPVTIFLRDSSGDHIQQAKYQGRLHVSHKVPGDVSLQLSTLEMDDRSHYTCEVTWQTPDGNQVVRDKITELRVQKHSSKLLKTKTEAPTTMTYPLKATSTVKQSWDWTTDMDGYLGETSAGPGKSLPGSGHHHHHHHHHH
Put plainly: BLI (Octet), IgG on AHC sensor, antigen 100 nM.

Another assay addresses T3, Human VSIG4-L-His (human, UniProt Q9Y279 20-283).
T3 construct: long isoform ECD with His tag; also called hVSIG4-L
T3 sequence: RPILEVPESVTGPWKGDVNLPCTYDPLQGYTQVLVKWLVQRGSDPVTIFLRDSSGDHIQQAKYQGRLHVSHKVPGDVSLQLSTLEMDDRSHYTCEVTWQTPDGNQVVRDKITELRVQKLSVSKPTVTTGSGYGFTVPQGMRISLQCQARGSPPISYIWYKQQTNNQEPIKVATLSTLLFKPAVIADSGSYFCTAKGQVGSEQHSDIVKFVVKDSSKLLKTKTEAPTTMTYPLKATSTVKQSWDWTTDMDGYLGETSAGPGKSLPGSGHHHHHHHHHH
Briefly: BLI (Octet), IgG on AHC sensor, antigen 100 nM. For orientation: Biolayer interferometry detects binding as a change in optical thickness at a sensor tip.

Assay [7] has as its target T4, Cynomolgus Monkey VSIG4-L-His (cynomolgus monkey).
T4 construct: ECD with His tag; also called cyVSIG4-L; cyno VSIG4-L-His
T4 chain: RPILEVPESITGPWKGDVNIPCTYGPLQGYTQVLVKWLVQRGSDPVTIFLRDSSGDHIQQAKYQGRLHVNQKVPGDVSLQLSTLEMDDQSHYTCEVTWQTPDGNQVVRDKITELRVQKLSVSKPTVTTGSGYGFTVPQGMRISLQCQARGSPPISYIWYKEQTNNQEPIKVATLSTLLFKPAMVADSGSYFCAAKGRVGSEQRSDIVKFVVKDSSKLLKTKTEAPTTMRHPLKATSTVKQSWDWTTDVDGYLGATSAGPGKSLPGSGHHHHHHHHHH
Briefly: BLI (Octet), IgG on AHC sensor, antigen 100 nM.
Procedure: (§3) The binding affinity of chimeric antibodies was determined by biolayer interferometry (BLI), using a ForteBio Octet® Red384 system. […] Biosensors were rehydrated prior to the assay in kinetics buffer for 10 minutes and then equilibrated in kinetics buffer for 60 seconds. Antibody was then immobilized for 300 seconds followed by a 120 second baseline wash in fresh kinetics buffer, 300 second analyte association, and 300 second dissociation in the same buffer wells as the baseline wash step. All assay steps occurred at 30° C. with an acquisition rate of 5.0 Hz
(§4) Processing parameters included double reference subtraction, with human IgG4 used as an isotype control for reference sensor subtraction and immobilized ligand in kinetics buffer with no analyte used for reference sample subtraction. Y-axis data was aligned to the average baseline step for the last 5 seconds and all steps were inter-step corrected to the start of the dissociation step. High frequency noise was removed using Savitzky-Golay filtering and final fitting was a 1:1 global binding model to both association and dissociation.

The values that follow come from US20230348603A1 (VERSEAU THERAPEUTICS, published 2023).

One may read the IC50 as the concentration at which inhibition is half-maximal. A word on the Kd: it is the constant that tells how readily two partners part at equilibrium.

T1 sequence (chain, as listed by the source limits assumed): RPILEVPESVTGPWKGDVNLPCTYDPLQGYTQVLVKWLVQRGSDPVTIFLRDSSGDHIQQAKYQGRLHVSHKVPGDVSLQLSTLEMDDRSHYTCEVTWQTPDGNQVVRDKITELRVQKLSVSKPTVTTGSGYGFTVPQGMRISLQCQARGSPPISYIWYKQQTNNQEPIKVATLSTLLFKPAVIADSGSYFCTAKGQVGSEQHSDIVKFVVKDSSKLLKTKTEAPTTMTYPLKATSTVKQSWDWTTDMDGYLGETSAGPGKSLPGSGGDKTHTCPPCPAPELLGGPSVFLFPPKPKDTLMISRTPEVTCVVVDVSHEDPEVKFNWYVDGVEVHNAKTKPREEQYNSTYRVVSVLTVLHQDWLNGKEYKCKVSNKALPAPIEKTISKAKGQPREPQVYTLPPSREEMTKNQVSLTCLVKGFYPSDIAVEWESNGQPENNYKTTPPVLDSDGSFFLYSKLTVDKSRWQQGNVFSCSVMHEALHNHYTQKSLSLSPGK
Procedure for Human VSIG4-L-His: as §3, §4
Procedure for Human VSIG4-S-His: as §3, §4

B1: 12A12 mouse/human chimeric IgG4 (S228P) kappa (antibody, V domains shown)
VH: QVQMKQSGAELAKPGASVKMSCKASGYTFTNYWMHWVKQRPGQGLEWIGYINPSTGYTDYNQNFKDRATLTADKSSSTAYMQLSSLTSEDSAVYYCIRGSDYYGRDYWGQGTTLTVSS
VL: DIQMTQTTSSLSASLGDRVTISCRASQDISNYLNWYQQKPDGTLKLLIYYTSRLHSGVPSRFSGSGSGTDYSLTISNLEQEDIATYFCRQGNTLPWTFGGGTKLEIKR
In the case of B1, the IC50 in the assay with Human VSIG4-L-Fc [1] came out at 0.5 nM. Also, the “normalized maximum binding nm shift” value was 0.13 normalized with Human VSIG4-L-Fc [2], 0.77 normalized with Human VSIG4-L-Fc [4], 0.65 normalized in the assay with Human VSIG4-L-Fc [5] and 0.86 normalized in the assay with Human VSIG4-L-Fc [6]. For the same molecule, the “Percent Blocking C3b” value with Human VSIG4-L-Fc [3] was 96%. The Kd in the assay with Human VSIG4-S-His is 15.8 nM; in the assay with Human VSIG4-L-His, 19.1 nM; in assay [7], 19.5 nM.
